{
  "source": "patent US20110053851A1",
  "molecular_target": "human FXa (human) (UniProt P00742)",
  "sequence (P00742 41-488 limits assumed)": "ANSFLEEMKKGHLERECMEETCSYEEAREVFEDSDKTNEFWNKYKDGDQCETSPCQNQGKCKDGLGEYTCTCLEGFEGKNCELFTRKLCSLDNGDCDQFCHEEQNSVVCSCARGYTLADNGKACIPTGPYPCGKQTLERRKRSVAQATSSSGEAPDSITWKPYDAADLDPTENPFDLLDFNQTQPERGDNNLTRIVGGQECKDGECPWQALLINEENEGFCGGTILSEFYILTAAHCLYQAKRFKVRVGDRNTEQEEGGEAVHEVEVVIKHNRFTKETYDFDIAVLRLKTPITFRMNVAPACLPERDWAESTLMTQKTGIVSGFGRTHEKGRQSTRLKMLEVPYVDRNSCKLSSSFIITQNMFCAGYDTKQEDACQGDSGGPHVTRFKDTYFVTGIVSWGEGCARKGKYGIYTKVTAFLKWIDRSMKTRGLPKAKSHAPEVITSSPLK",
  "experiment": "cell-based or functional assay",
  "data": [
    {"substance": "P. textilis snake venom FV", "values": [
      {"measurement": "CT (ave) (sec), citrated plasma; Fva 10 (1/10), PL 50, Ca 50", "value": 23.7, "unit": "s"},
      {"measurement": "CT (ave) (sec), citrated plasma; Fva 10 (1/100), PL 50, Ca 50", "value": 54.7, "unit": "s"},
      {"measurement": "CT (ave) (sec), citrated plasma; Fva 25 (1/10), PL 50, Ca 50", "value": 19.7, "unit": "s"},
      {"measurement": "CT (ave) (sec), citrated plasma; Fva 25 (1/100), PL 50, Ca 50", "value": 41, "unit": "s"},
      {"measurement": "CT (ave) (sec), citrated plasma; Fva 50 (1/10), PL 0, Ca 50", "value": 67.5, "unit": "s"},
      {"measurement": "CT (ave) (sec), citrated plasma; Fva 50 (1/10), PL 50, Ca 50", "value": 18, "unit": "s"},
      {"measurement": "CT (ave) (sec), citrated plasma; Fva 50 (1/100), PL 0, Ca 50", "value": 90.8, "unit": "s"},
      {"measurement": "CT (ave) (sec), citrated plasma; Fva 50 (1/100), PL 50, Ca 50", "value": 31.6, "unit": "s"},
      {"measurement": "CT (ave) (sec), citrated plasma; Fva 50 (1/1000), PL 0, Ca 50", "value": "> 300", "unit": "s"},
      {"measurement": "CT (ave) (sec), citrated plasma; Fva 50 (1/1000), PL 50, Ca 50", "value": 68.7, "unit": "s"},
      {"measurement": "CT (ave) (sec), citrated plasma; Fva (A280 = 1.080) 10, PL 50, Ca 50", "value": 15, "unit": "s"},
      {"measurement": "CT (ave) (sec), citrated plasma; Fva (A280 = 1.080) 25, PL 50, Ca 50", "value": 13.6, "unit": "s"},
      {"measurement": "CT (ave) (sec), citrated plasma; Fva (A280 = 1.080) 50, PL 0, Ca 50", "value": 54.3, "unit": "s"},
      {"measurement": "CT (ave) (sec), citrated plasma; Fva (A280 = 1.080) 50, PL 50, Ca 0", "value": "> 300", "unit": "s"},
      {"measurement": "CT (ave) (sec), citrated plasma; Fva (A280 = 1.080) 50, PL 50, Ca 50", "value": 12.7, "unit": "s"},
      {"measurement": "Citrated Plasma Clotting Time (Sec) at FV 0.7 nM (0 nM FV: 151)", "value": 69, "unit": "s"},
      {"measurement": "Citrated Plasma Clotting Time (Sec) at FV 7 nM (0 nM FV: 151)", "value": 32, "unit": "s"},
      {"measurement": "Citrated Plasma Clotting Time (Sec) at FV 70 nM (0 nM FV: 151)", "value": 18, "unit": "s"},
      {"measurement": "Citrated Plasma Clotting Time (Sec) at FV 700 nM (0 nM FV: 151)", "value": 13, "unit": "s"},
      {"measurement": "Clotting time (sec) (1), citrated plasma; Fva 10 (1/10), PL 50, Ca 50", "value": 24.1, "unit": "s"},
      {"measurement": "Clotting time (sec) (1), citrated plasma; Fva 10 (1/100), PL 50, Ca 50", "value": 53.3, "unit": "s"},
      {"measurement": "Clotting time (sec) (1), citrated plasma; Fva 25 (1/10), PL 50, Ca 50", "value": 19.6, "unit": "s"},
      {"measurement": "Clotting time (sec) (1), citrated plasma; Fva 25 (1/100), PL 50, Ca 50", "value": 39.5, "unit": "s"},
      {"measurement": "Clotting time (sec) (1), citrated plasma; Fva 50 (1/10), PL 0, Ca 50", "value": 68.9, "unit": "s"},
      {"measurement": "Clotting time (sec) (1), citrated plasma; Fva 50 (1/10), PL 50, Ca 50", "value": 18.3, "unit": "s"},
      {"measurement": "Clotting time (sec) (1), citrated plasma; Fva 50 (1/100), PL 0, Ca 50", "value": 84.3, "unit": "s"},
      {"measurement": "Clotting time (sec) (1), citrated plasma; Fva 50 (1/100), PL 50, Ca 50", "value": 32.3, "unit": "s"},
      {"measurement": "Clotting time (sec) (1), citrated plasma; Fva 50 (1/1000), PL 0, Ca 50", "value": "> 300", "unit": "s"},
      {"measurement": "Clotting time (sec) (1), citrated plasma; Fva 50 (1/1000), PL 50, Ca 50", "value": 69.7, "unit": "s"},
      {"measurement": "Clotting time (sec) (1), citrated plasma; Fva (A280 = 1.080) 10, PL 50, Ca 50", "value": 15.2, "unit": "s"},
      {"measurement": "Clotting time (sec) (1), citrated plasma; Fva (A280 = 1.080) 25, PL 50, Ca 50", "value": 13.3, "unit": "s"},
      {"measurement": "Clotting time (sec) (1), citrated plasma; Fva (A280 = 1.080) 50, PL 0, Ca 50", "value": 54.1, "unit": "s"},
      {"measurement": "Clotting time (sec) (1), citrated plasma; Fva (A280 = 1.080) 50, PL 50, Ca 0", "value": "> 300", "unit": "s"},
      {"measurement": "Clotting time (sec) (1), citrated plasma; Fva (A280 = 1.080) 50, PL 50, Ca 50", "value": 12.6, "unit": "s"},
      {"measurement": "Clotting time (sec) (2), citrated plasma; Fva 10 (1/10), PL 50, Ca 50", "value": 23.4, "unit": "s"},
      {"measurement": "Clotting time (sec) (2), citrated plasma; Fva 10 (1/100), PL 50, Ca 50", "value": 56, "unit": "s"},
      {"measurement": "Clotting time (sec) (2), citrated plasma; Fva 25 (1/10), PL 50, Ca 50", "value": 19.8, "unit": "s"},
      {"measurement": "Clotting time (sec) (2), citrated plasma; Fva 25 (1/100), PL 50, Ca 50", "value": 42.5, "unit": "s"},
      {"measurement": "Clotting time (sec) (2), citrated plasma; Fva 50 (1/10), PL 0, Ca 50", "value": 67, "unit": "s"},
      {"measurement": "Clotting time (sec) (2), citrated plasma; Fva 50 (1/10), PL 50, Ca 50", "value": 17.6, "unit": "s"},
      {"measurement": "Clotting time (sec) (2), citrated plasma; Fva 50 (1/100), PL 0, Ca 50", "value": 97.4, "unit": "s"},
      {"measurement": "Clotting time (sec) (2), citrated plasma; Fva 50 (1/100), PL 50, Ca 50", "value": 31, "unit": "s"},
      {"measurement": "Clotting time (sec) (2), citrated plasma; Fva 50 (1/1000), PL 0, Ca 50", "value": "> 300", "unit": "s"},
      {"measurement": "Clotting time (sec) (2), citrated plasma; Fva 50 (1/1000), PL 50, Ca 50", "value": 67.7, "unit": "s"},
      {"measurement": "Clotting time (sec) (2), citrated plasma; Fva (A280 = 1.080) 10, PL 50, Ca 50", "value": 14.8, "unit": "s"},
      {"measurement": "Clotting time (sec) (2), citrated plasma; Fva (A280 = 1.080) 25, PL 50, Ca 50", "value": 13.8, "unit": "s"},
      {"measurement": "Clotting time (sec) (2), citrated plasma; Fva (A280 = 1.080) 50, PL 0, Ca 50", "value": 54.5, "unit": "s"},
      {"measurement": "Clotting time (sec) (2), citrated plasma; Fva (A280 = 1.080) 50, PL 50, Ca 0", "value": "> 300", "unit": "s"},
      {"measurement": "Clotting time (sec) (2), citrated plasma; Fva (A280 = 1.080) 50, PL 50, Ca 50", "value": 12.8, "unit": "s"},
      {"measurement": "clotting time of re-calcified citrated whole blood with 20 nM APC and 280 nM snake venom FV (no APC: 505 seconds; APC alone: 1333 seconds)", "value": 127, "unit": "s"}
    ]}
  ]
}
